According to article PMC11741422 (bioRxiv, 2025):
Where “and” joins values, the source holds several entries; their conditions need not be identical. Identical values can stand only once. One block for each binder: values may come before it.

Experiments:
[1] = target: T1, lipid nanodisc reconstituted yeast V-ATPase Vo proton channel subcomplex (VoND) (Saccharomyces cerevisiae (S288c-type …, UniProt P32563;P25515;P32842;P23968;P32366;Q3E7B6;P0C5R9;P53262)); test: BLI
[2] = target: yeast Vo proteolipid subunit c (Vma3p) (yeast (Saccharomyces cerevisiae), UniProt P25515); test: cryo-EM structure
Chain of yeast Vo proteolipid subunit c (Vma3p) (P25515 whole entry): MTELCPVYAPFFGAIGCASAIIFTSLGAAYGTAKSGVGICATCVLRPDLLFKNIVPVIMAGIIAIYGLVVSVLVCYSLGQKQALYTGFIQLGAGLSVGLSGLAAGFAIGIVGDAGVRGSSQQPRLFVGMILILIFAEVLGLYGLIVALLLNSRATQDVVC

[3] = target: T1, lipid nanodisc reconstituted yeast …; test: cryo-EM structure
[4] = target: yeast Vo subunit d (yeast (Saccharomyces cerevisiae), UniProt P32366); test: cryo-EM structure
Chain of yeast Vo subunit d (P32366 whole entry): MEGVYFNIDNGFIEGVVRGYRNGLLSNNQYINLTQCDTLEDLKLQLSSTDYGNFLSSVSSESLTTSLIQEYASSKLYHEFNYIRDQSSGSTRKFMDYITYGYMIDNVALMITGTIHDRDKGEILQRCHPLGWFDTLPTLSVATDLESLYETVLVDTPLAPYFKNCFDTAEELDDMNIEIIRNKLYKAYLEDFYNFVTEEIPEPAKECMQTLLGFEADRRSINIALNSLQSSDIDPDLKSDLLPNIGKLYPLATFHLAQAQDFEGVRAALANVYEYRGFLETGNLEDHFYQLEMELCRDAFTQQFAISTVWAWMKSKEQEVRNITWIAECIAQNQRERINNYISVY

Kd [1]: < 0.001 nM
binding result [2]: binds
stoichiometry N [3]: 8 N27 per VoND
B1: Nanobody N27 (2WVA7) (VHH)
VHH: QVQLQESGGGLVEIGGSLRLSCAASGTLFTFNTMAWYRQAPGKQREFIATITSGGNTNYADSVQGRFTISRGNAKNTLYLQMNSLKPEDTAVYYCNARTMTGPFDYWGQGTQVTVSS

Kd [1]: 0.013 ± 0.001 nM
binding result [2]: binds
stoichiometry N [3]: 4 N125 per VoND and 3 N125 per VoND
B2: Nanobody N125 (1WVA25) (VHH)
VHH: QVQLQESGGGLVQPGGSLRLSCVASGFTFSRYAMTWVRQAPGKGLEWVSDISSGGSSTFYTDSVKGRFTISRDNAKNTLYLQMNSLKPDDTAIYFCAKGVPSYYSDYERRSKRYDSRGQGTQVTVSS

Kd [1]: 0.09 ± 0.023 nM
binding result [4]: binds
B3: Nanobody N2149 (2WVA149) (VHH)
VHH: QVQLQESGGGLVQAGGSLRLSCAVSGSIFSGNAMDWYRQAPGKQRELVASLTSTGSTNYADSVKGRFTITRDNAKNTVYLQMNSLKPEDTAVYYCHALIYRSRLDLAPGNYWGQGTQVTVSS
